Test results published in US7169567B1, “Screening assay utilizing the PTH receptor” (The General Hospital Corporation, priority 1998, dated 2007).
Where no end group is shown, it is not given here.

Molecular target: T1, intact rat PTH-1 receptor (rWT-HA) (Rattus norvegicus, UniProt P25961)
T1 construct: expressed in transfected cells; host or cells: COS-7, transient (DEAE-dextran), pCDNA-1 based plasmid
T1 sequence (P25961 23-591 E93Y/N94P/K95Y/T99D/G100Y/S101A limits assumed): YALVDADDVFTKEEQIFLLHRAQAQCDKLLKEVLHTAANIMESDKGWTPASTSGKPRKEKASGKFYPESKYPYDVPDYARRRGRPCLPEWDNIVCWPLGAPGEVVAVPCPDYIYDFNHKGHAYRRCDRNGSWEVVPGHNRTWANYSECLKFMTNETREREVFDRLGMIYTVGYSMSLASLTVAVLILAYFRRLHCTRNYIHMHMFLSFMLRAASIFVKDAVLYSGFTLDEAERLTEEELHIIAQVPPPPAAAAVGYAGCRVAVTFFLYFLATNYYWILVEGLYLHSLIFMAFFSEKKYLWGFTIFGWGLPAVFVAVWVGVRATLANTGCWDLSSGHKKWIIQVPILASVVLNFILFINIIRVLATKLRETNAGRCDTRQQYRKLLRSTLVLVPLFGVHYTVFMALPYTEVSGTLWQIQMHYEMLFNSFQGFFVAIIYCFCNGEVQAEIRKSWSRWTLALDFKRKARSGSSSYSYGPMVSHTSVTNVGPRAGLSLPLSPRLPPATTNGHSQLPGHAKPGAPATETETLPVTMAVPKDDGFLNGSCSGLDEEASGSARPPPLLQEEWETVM
Test: cAMP response in COS-7 cells transiently transfected with intact rat PTH-1 receptor (rWT-HA)
Format: cell-based
Conditions: COS-7 cells expressing rWT-HA
Excerpt: FIG. 4. PTH Responses of Intact and Truncated PTH-1 Receptors in COS-7 Cells. Shown at the top are schematics of the intact (A) and truncated (B) rat PTH-1 receptors used for transient transfection of COS-7 cells, and subsequent cAMP response assays. The conserved extracellular cysteine residues are depicted as open circles and numbered according to sequence position, and the nine amino acids of the epitope tag (HA) in rWT-HA are shaded. The tics at residue 26 and 181 indicate the endpoints of the deletion in rΔNt. Based on the predicted signal peptide cleavage site at Ala-22, residues 23–25 in rΔNt are joined to residue 182. The cAMP responses of COS-7 cells expressing the intact receptor (C) and rΔNt (D) to rPTH(1–34) (J) or rPTH(1–14) (C) are also shown. The graphs show combined data (mean±s.e.m.) from five separate experiments, each performed in duplicate.
FIG. 5. Alanine-scan of PTH(1–14) with Intact and Truncated PTH Receptors. COS-7 cells transiently transfected with rWT-HA (A) or rCE I-G (B) were treated with 100 mM of native rat PTH(1–14) or 100 mM of a rPTH(1–14) analog containing a single alanine substitution for 1 h at 21° C., and the resulting intracellular cAMP levels were measured by RIA. The amino acid substitutions are indicated on the axis labels. Peptides were tested in duplicate, and a single experiment representative of three others is shown. […]

With “PTH(1–14): Amino-terminal peptide fragment based on the rat PTH sequence, residues 1–14, C-terminally amidated (AVSEIQLMHNLGKH-NH2)” the “potency relative to PTH(1–34) with rWT-HA” value was “four to five orders of magnitude weaker”.
